US20140005119A1, “COMPOSITIONS AND METHODS FOR INHIBITING THE ACTIVITY OF P110a MUTANT PROTEINS” (Case Western Reserve University, priority 2012, published 2014)

How the values were obtained:
IRS1 phosphorylation = assay: Immunoblot of treated cells, IRS1 phosphorylation; type: cell-based, human
Procedure: (§1) FIG. 4(A-F) illustrate: (A) Schematic diagram of linear and stapled WT and mutant peptides derived from p110α (SEQ ID NOs: 5, 6, 7 and 8). (B) Immunoblots of cell lysates immunoprecipitated with beads conjugated with anti-FLAG antibodies and then blotted with the indicated antibodies. Linear or stapled WT and mutant peptide were added into culture medium of the p110α E545K 3×FLAG KI cells for 16 hr. (C) Immunoblots of cell lysates immunoprecipitated with anti-p110α antibodies and then blotted with the indicated antibodies. Vaco481 CRC cells were treated with the stapled mutant peptides at the indicated concentration. (D) Immunoblots of cell lysates blotted with the indicated antibodies. The indicated cell lines were treated with the stapled mutant peptide. (E) Immunoblots of cell lysates blotted with the indicated antibodies. […]
(§2) For Co-immunoprecipitation (Co-IP), cells were harvested, washed with PBS, and then lysed in IP buffer (50 mMTris [pH 7.4], 150 mMNaCl, 5 mMEDTA [pH 8.0], 0.5% NP40, 1 mM PMSF, complete Protease Inhibitor Cocktail tablet [Roche]; supplemented with phosphatase inhibitors [1 mM Na3VO4, 20 mM NaF, 0.1 mM b-glycerophosphate, 20 mM sodium pyrophosphate] when necessary). […] Lysates were then cleared by centrifugation (14,000 rpm, 10 min) and protein concentration in supernatants was determined with a BCA protein assay kit (Pierce, Rockford, Ill.). […]

[1] = biological target: T1, interaction between IRS1 and DABD p110α E545K (Homo sapiens, UniProt P35568); assay: Co-IP from lysate of cells co-transfected with Myc-IRS1 and FLAG-tagged ΔABD p110α E545K, incubated with stapled peptide; type: binding
T1 construct: expressed in transfected cells
T1 sequence (P35568 1-1242): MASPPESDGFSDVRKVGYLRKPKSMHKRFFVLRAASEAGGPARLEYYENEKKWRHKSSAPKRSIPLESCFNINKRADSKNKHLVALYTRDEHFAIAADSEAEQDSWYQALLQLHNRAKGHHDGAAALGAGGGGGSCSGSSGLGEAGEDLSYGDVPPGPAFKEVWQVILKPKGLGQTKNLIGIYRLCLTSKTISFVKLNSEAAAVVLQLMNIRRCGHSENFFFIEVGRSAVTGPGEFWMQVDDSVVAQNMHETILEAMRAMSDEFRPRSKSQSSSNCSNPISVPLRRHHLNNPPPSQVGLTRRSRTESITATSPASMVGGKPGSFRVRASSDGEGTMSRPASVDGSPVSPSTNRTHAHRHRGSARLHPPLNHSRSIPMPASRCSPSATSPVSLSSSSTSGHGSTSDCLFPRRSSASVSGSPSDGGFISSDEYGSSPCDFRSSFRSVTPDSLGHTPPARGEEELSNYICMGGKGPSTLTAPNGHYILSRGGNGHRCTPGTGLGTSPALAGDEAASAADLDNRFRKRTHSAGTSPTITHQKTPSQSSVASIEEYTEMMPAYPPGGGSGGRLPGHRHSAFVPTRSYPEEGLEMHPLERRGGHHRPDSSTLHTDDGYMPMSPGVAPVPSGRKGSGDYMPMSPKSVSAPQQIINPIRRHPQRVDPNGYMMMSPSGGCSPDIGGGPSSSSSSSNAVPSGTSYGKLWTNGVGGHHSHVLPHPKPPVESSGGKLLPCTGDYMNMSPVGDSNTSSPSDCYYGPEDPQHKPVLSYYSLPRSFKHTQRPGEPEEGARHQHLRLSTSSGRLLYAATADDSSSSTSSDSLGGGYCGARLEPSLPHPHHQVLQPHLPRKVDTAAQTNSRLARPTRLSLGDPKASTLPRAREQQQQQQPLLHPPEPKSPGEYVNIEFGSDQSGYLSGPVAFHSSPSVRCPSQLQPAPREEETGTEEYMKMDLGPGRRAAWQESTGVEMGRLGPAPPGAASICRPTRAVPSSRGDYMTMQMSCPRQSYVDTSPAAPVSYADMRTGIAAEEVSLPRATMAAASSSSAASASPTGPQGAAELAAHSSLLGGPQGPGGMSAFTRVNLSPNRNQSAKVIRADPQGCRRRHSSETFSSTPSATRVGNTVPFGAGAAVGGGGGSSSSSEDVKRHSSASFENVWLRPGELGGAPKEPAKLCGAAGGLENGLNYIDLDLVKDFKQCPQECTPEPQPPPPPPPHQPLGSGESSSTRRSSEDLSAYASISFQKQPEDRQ
Procedure: FIGS. 3(A-M) illustrate: (A, B) Mapping peptides (P3, SEQ ID NO: 1; P4 SEQ ID NO: 2; P5, SEQ ID NO: 3; P6, SEQ ID NO: 4) derived from mutant p110α that inhibit interaction between IRS1 and p110α E545K. The indicated peptides were added into cell lysates made from the p110α E545K 3×FLAG KI cells. Cell lysates were immunoprecipitated with beads conjugated with anti-FLAG antibodies and then blotted with anti-IRS1 antibodies. (C) Immunoblots of cell lysates made from the p110α E545K 3×FLAG KI cells. Cell lysates were immunoprecipitated with beads conjugated with anti-FLAG antibodies and then blotted with the indicated antibodies. […] (J, K) Immunoblot and graph of purified recombinant p110α E545K mutant proteins mixed with the indicated components and quantified using an in vitro lipid kinase assay. […]
as §2

[2] = biological target: T2, protein interaction between p110α Q546P and IRS1 in Vaco481 CRC cells (Homo sapiens, UniProt P35568); assay: Co-IP (anti-p110α) from Vaco481 CRC cells treated with stapled mutant peptide; type: cell-based
T2 construct: endogenous in cells; host or cells: Vaco481 CRC cells
T2 sequence (P35568 1-1242): T1 sequence (P35568 1-1242)
Procedure: as §1, §2

inhibition of the interaction between IRS1 and DABD p110α E545K [1]: inhibited
disruption of protein interaction between p110α Q546P and IRS1 [2]: disrupted
Substance: H2N-SEITKQEK-D^549-FLW-S^553-HRHYC-COOH [stapled mutant peptide]
IRS1 phosphorylation (IRS1 phosphorylation): did not interfere
